B1: Cyclin-dependent kinase 4 inhibitor C (Homo sapiens), P42773 (parent)
chain: MAEPWGNELASAAARGDLEQLTSLLQNNVNVNAQNGFGRTALQVMKLGNPEIARRLLLRGANPDLKDRTGFAVIHDAARAGFLDTLQTLLEFQADVNIEDNEGNLPLHLAAKEGHLRVVEFLVKHTASNVGHRNHKGDTACDLARLYGRNEVVSLMQANGAGGATNLQ

Variants of: B1
Details: with cdk6_human CDK6, Q00534
cdk6_human CDK6, Q00534, sequence (Q00534 whole entry): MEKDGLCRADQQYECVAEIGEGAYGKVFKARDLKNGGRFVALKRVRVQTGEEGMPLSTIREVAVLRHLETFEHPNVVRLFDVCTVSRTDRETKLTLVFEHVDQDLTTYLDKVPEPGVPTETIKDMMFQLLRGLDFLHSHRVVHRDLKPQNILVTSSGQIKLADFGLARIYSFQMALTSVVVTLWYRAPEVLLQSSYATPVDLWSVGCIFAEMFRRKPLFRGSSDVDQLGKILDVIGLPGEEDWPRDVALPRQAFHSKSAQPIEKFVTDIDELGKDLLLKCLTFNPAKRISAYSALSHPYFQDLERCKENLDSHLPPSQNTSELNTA

Variant	effect of a mutation on the interaction
A72P	disrupting interaction

Reference: IntAct's records for PubMed 8840966
